Reference: the RNAGym collection of RNA variant scans (doi:10.1073/pnas.2313332121)

B1: TPR t1 (parent)
chain: GACCAAUCUGCCCUCAGAGCUCGAGAACAUCUUCGGAUGCAGAGGAGGCAGGCUUCGGUGGCGCGAUAGCGCCAACGUCCUCAACCUCCAAUGCAUCCCACCACAUGAUGAUGCCUGAAGAGCCUUGGUUUUUUG

Variants of: B1
Assay: polymerase ribozyme fitness, log enrichment relative to wild type (log ratio); higher = more active; in vitro selection for triplet polymerase activity
Outline: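 Mutant libraries were PCR-built and transcribed for each subunit of a heterodimeric triplet polymerase ribozyme and selected for one round in triplicate at −7 °C, frozen, before gel excision of extended constructs and streptavidin-bead capture. Input and output libraries were Illumina-sequenced, keeping genotypes with ≥10 input reads and ≥1 read per output. Fitness is a logarithmic ratio of genotype to wild-type enrichment, in base 2, using inverse-variance-weighted replicate averages.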

| Variant | polymerase ribozyme fitness (log ratio) |
| --- | --- |
| GACCAAUCUGCCCUCAGAGCUCGAGAACAUCUUCGGAUGCAGAGGAGGCAGGCUUUGGUGGCGCGAUAGCGCCAACGUACUCAACCUCCAAUGCAUCCCAUCACAUGAUGAUGCCUGAAGAGCCUUGGUUUUUUG [C56U C79A C101U] | -1.23 |
| GACCAAUCUGCCCUCAGAGCUCGAGAACAUCUUCGGAUGCAGAGGAGGCAGGCUUUGGUGGCGCGAUAGCGCCAACGUGCUCAACCUCCAAUGCAUCCCACUAUAUGAUGAUGCCUGAAGAGCCUUGGUUUUUUG [C56U C79G C102U C104U] | -4.64 |
| GACCAAUCUGCCCUCAGAGCUCGAGAACAUCUUCGGAUGCAGAGGAGGCAGGCUUUGGUGGCGCGAUAGCGCUAAUGUCCUCAACCUCCAAUGCAUCCCACCACAUGAUGAUGCCUGAAGAGCCUUGGUUUUUUG [C56U C73U C76U] | -2.54 |
| GACCAAUCUGCCCUCAGAGCUCGAGAACAUCUUCGGAUGCAGAGGAGGCAGGCUUUGGUGGCGCGAUAGCGCCAACGUCAUCAACCUCCAAUGCAUCCCACCACAUGAUGAUGCCUGAAGAGCCUUGGUUUUUUG [C56U C80A] | -1.98 |
| GACCAAUCUGCCCUCAGAGCUCGAGAACAUCUUCGGAUGCAGAGGAGGCAGGCUUUGGUGGCGCGAUAGCGCCAACGUCCUAAACCUCCAAUGCAUCCCACCACAGGAUGAUGCCUUAAGAGCCUUGGUUUUUUG [C56U C82A U106G G117U] | -4.65 |
| GACCAAUCUGCCCUCAGAGCUCGAGAACAUCUUCGGAUGCAGAGGAGGCAGGCUUUGGUGGCGCGAUAGCGCCAACGUCCUCAACCUCCAAUGCAUUCCACCACAAGAUGAUGCCUGAAGAGCCUUUGUUUUUUG [C56U C97U U106A G127U] | -0.714 |
| GACCAAUCUGCCCUCAGAGCUCGAGAACAUCUUCGGAUGCAGAGGAGGCAGGCUUUGGUGGCGCGAUAGCGCCAAAGUCCUCAACCUCCAAUACAUCCCACCACAUGAUGAUGCCUGAACAGCCUUGGUUUUUUG [C56U C76A G93A G120C] | -4.53 |
| GACCAAUCUGCCCUCAGAGCUCGAGAACAUCUUCGGAUGCAGAGGAGGCAGGCUUUGGUGGCGCGAUAGCGCCAACGUCCUCAACCUCCAAUGCAUCCUACCACAUGAUGAUGCCUGAAGAGCCUUGGUUUUUUG [C56U C99U] | -3.34 |
| GACCAAUCUGCCCUCAGAGCUCGAGAACAUCUUCGGAUGCAGAGGAGGCAGGCUUUGGUGGCGCGAUAGCGCCAACGUCCUCAACCUCCAAUGCAUCCAACCACAUGAUGAUGCCUGAAGAGCCUUGGUUUUUUG [C56U C99A] | -6.27 |
| GACCAAUCUGCCCUCAGAGCUCGAGAACAUCUUCGGAUGCAGAGGAGGCAGGCUUUGGUGGCGCGAUAGCGCCAACGUCCUCAAGCUCCAUUGCAUCCCAUCACACGAUGAUGCCUGAAGAGCCUUGGUUUUUUG [C56U C85G A91U C101U U106C] | -4.05 |
| GACCAAUCUGCCCUCAGAGCUCGAGAACAUCUUCGGAUGCAGAGGAGGCAGGCUUUGGUGGCGCGAUAGCGCCAACGUCCUCAACCUCUAAUGCAUCCCACCACAUGAUGAUGCCUGAAGAGCCUUGGUUUUUUG [C56U C89U] | -0.281 |
| GACCAAUCUGCCCUCAGAGCUCGAGAACAUCUUCGGAUGCAGAGGAGGCAGGCUUUGGUGGCGCGAUAGCGCCAACGUCCUCAACCUCCAAUGCAUCACACCACAUGAUGAUGCCUGAAGAGCCUUGGUUUUUUG [C56U C98A] | -5.17 |
| GACCAAUCUGCCCUCAGAGCUCGAGAACAUCUUCGGAUGCAGAGGAGGCAGGCUUUGGUGGCGCGAUAGCGCCAACGUCCUCAACCUCCAAUGAAUCCCACCACGUGAUGAUGCCUGAAGAGCCUUGGUUUUUUG [C56U C94A A105G] | -3.08 |
| GACCAAUCUGCCCUCAGAGCUCGAGAACAUCUUCGGAUGCAGAGGAGGCAGGCUUUGGUGGCGCGAUAGCGCCAACGUCCUCAAGCUCCAAUGCAUCCCACCACAUGAUGAUGCCUGAAGAGCCUUGGUUUUUUG [C56U C85G] | -2.65 |
| GACCAAUCUGCCCUCAGAGCUCGAGAACAUCUUCGGAUGCAGAGGAGGCAGGCUUUGGUGGCGCGAUAGCGCCAACGUCCUCAACCUACAAUGCAUCCCACCACAUGAUGAUGCCUGAAGAGCCUUCGUUUUUUG [C56U C88A G127C] | -1.72 |
| GACCAAUCUGCCCUCAGAGCUCGAGAACAUCUUCGGAUGCAGAGGAGGCAGGCUUUGGUGGCGCGAUAGCGCCAACGUCCUCAACCUCCAAUGCAUCCCACAACAUGAUGAUGCCUGAAGAGCCUUGGUUUUUUG [C56U C102A] | -1.94 |
| GACCAAUCUGCCCUCAGAGCUCGAGAACAUCUUCGGAUGCAGAGGAGGCAGGCUUUGGUGGCGCGAUAGCGCCAACGUCCUCAACCUCAAACGCAUCCCACCACAUGAUGAUGCCUUAAGAGCCUUGGUUUUUUG [C56U C89A U92C G117U] | -5.23 |
| GACCAAUCUGCCCUCAGAGCUCGAGAACAUCUUCGGAUGCAGAGGAGGCAGGCUUUGGUGGCGCGAUAGCGCCAACGUCCUCAACCUCCAAUGCAUUCCACCACAUGGUGAUGCCCGAAGAGCCUUGGUUUUGUG [C56U C97U A108G U116C U133G] | -3.98 |
| GACCAAUCUGCCCUCAGAGCUCGAGAACAUCUUCGGAUGCAGAGGAGGCAGGCUUUGGUGGCGCGAUAGCGCCAAGGUCCUCAACCUCCAAUGCAUCCCACCACAUGAUGAUGCCUGAAGAGCCUUGGUUUUUUG [C56U C76G] | -2.08 |
| GACCAAUCUGCCCUCAGAGCUCGAGAACAUCUUCGGAUGCAGAGGAGGCAGGCUUUGGUGGCGCGAUAGCGCGAACGUCCUCAACCUCCAAUGCAUCCCACCACAUGAUGAUGCCUGAAGAGCCUUGGUUUUUUG [C56U C73G] | -2 |
| GACCAAUCUGCCCUCAGAGCUCGAGAACAUCUUCGGAUGCAGAGGAGGCAGGCUUUGGUGGCGCGAUAGCGCCAACGUCCUCAACCUCCAAUGCAUACCACCACAUGAUGAUGCCUGAAGAGCCUUGGUUUUUUG [C56U C97A] | -4.36 |
